# Key:
# Assay in all cases: fluorescence anisotropy
# Settings in all cases: 50 mM Tris-HCl pH 8.0, 50 mM NaCl, 1 mM DTT, 25 C; 200 nM protein, 5 nM 3'-fluorescein DNA
# BLM642-1290 (human) = BLM642-1290 (human) (UniProt P54132)
# BLM full-length (human) = BLM full-length (human) (UniProt P54132)
# [1] = molecular target: RecQ E. coli (Escherichia coli) (UniProt P15043)
# Chain of RecQ E. coli (Escherichia coli) (P15043 whole entry): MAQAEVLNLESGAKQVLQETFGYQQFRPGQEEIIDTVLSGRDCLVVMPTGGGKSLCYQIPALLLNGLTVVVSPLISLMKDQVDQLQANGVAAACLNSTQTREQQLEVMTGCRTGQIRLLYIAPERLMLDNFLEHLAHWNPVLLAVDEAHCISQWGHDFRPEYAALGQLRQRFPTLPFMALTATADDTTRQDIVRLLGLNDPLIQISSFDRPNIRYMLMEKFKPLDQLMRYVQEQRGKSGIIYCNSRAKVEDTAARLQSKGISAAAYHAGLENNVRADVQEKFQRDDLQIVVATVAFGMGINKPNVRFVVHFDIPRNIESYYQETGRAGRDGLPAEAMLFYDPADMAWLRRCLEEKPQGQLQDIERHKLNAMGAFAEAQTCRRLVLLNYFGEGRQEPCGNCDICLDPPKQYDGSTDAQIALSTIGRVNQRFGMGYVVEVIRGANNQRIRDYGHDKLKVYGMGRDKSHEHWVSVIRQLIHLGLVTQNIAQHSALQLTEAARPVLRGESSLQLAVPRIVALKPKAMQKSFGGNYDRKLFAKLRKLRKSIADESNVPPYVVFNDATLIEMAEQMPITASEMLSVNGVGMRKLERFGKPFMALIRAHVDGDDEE
# Chain of BLM full-length (human) (P54132 whole entry): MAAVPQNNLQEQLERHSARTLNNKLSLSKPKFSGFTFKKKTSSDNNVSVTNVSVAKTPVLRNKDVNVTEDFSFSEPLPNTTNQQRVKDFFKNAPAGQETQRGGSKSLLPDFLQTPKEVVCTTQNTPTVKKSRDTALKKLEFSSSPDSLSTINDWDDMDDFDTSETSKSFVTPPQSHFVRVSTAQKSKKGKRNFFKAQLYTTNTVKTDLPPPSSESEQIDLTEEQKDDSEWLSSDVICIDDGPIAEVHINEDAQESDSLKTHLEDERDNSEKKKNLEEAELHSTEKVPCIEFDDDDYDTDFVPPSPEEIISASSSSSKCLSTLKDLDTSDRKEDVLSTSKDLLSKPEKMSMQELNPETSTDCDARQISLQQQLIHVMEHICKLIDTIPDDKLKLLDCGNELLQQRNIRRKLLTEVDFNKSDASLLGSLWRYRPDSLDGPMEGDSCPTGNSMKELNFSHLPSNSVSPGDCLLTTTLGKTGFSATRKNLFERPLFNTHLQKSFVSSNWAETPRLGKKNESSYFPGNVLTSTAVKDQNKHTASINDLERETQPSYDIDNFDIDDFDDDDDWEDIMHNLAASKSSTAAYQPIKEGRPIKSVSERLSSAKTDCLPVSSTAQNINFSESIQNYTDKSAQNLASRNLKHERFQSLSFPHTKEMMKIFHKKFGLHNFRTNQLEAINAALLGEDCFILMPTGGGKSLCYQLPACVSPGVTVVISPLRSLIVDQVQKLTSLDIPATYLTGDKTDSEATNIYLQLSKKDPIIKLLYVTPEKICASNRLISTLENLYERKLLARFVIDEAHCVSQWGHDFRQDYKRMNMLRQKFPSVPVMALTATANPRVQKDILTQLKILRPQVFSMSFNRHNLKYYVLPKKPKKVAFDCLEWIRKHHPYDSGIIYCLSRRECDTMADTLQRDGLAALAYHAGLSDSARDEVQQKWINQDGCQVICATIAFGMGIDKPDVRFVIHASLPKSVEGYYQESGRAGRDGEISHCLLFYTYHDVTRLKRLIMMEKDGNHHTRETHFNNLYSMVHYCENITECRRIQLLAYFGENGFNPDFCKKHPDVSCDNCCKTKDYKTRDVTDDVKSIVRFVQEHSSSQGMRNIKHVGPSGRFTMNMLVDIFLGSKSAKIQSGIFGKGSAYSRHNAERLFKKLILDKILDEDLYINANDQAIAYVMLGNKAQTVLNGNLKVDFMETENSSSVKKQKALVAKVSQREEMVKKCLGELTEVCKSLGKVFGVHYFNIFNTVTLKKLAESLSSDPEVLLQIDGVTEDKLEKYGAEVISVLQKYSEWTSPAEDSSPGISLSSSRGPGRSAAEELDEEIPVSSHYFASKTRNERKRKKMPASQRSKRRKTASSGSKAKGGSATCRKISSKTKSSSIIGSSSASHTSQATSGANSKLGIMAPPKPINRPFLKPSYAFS
# Chain of BLM642-1290 (human) (P54132 642-1290): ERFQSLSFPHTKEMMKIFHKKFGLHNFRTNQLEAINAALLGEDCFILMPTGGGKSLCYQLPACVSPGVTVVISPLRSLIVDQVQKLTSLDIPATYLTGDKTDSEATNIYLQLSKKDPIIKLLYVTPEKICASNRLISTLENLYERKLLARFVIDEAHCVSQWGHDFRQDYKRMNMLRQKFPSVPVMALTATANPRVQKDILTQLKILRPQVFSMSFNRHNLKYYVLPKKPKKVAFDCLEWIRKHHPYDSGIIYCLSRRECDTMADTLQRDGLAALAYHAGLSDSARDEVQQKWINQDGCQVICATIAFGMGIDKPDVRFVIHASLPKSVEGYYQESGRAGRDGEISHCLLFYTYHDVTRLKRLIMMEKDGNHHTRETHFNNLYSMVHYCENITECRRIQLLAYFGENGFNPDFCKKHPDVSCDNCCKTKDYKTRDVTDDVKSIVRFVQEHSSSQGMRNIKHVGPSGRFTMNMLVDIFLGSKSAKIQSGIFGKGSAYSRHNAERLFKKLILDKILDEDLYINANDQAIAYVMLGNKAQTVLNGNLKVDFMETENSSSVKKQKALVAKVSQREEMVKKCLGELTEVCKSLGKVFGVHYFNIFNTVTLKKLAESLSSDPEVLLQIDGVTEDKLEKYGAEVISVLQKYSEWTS
sequence,measurement,setting,value
GCCCTGCTGCCGACCAACGAAGGT (double strand) [F-24 ds],IC50,BLM642-1290 (human),8.17 µM
same,IC50,BLM full-length (human),6.84 µM
same,IC50,[1],44.1 µM
